Experimental data as given in US20150132314A1 (NOVIMMUNE S A, published 2015).
Positions count from the first letter of the chain named.

T1: human IL-17F homodimer (human, UniProt Q96PD4 31-163)
T1 sequence (looked up): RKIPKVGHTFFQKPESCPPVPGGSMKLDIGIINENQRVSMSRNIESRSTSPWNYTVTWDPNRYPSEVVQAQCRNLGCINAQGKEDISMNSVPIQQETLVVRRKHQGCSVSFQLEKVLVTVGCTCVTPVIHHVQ

T2: cynomolgus IL-17F homodimer, His-tagged (cynomolgus, UniProt G7P4V0 31-163)
T2 sequence: T1 sequence (looked up) with G22E, I29T, R73K, N74H, V100L, I129V

B1: 43G6 antibody (antibody, V domains shown)
VH: EVQLVESGGGLVQPGGSLRLSCAASGFTFSSYSMNWVRQAPGKGLEWVSYISSGSSTIYYADSVKGRFTISRDNAKNSLYLQMNSLRDEDTAVYYCAREGYVSGTYYNYYYGMDVWGQGTTVTVSS
VL: EIVLTQSPATLSLSPGERATLSCRASQSVSSYLAWYQQKPGQAPRLLIYDAPNRATGIPARFSGSGSGTDFTLTISSLEPEDFAVYYCQQRSNWSLTFGGGTKVEIK
B2: 22F8 antibody (antibody, V domains shown)
VH: EVQLLESGGGLVQPGGSLRLSCAASGFTFSSYAMNWVRQAPGKGLEWVSTISGRGGSIYYADSVKGRFTISRDNSKNTLYLQMNSLRAEDTAVYYCAKEEATWDFDYWGQGTTVTVSS
VL: B1 VL with Y32F, Y36F, P52S, S95P, L96P, G100Q
B3: 21B10 antibody (antibody, V domains shown)
VH: B1 VH with S53G
VL: B1 VL
B4: 2E12 antibody (antibody, V domains shown)
VH: B1 VH with P14R, V48I, G54S, T57A, V102A, T105R
VL: B1 VL with P52S, G64V, N93S
B5: 5D3 antibody (antibody, V domains shown)
VH: EVQLVESGGGLVQPGRSLRLSCAASGFTFDDYAMHWVRQAPGKGLEWVSGISWNSGSRGYADSVKGRFTISRDNAKNSLYLQMNSLRAEDTALYYCAKDMVYALDVWGQGTTVTVSS
VL: EIVLTQSPGTLSLSPGERATLSCRASQSFSGSYLAWYQQKPGQAPRLLIYDTSSRATGIPDRFSGSGSGTDFTLTISRLEPEDFAVYYCQQYGTWTFGQGTKVEIK
B6: 1F1 antibody (antibody, V domains shown)
VH: EVQLLESGGGLVQPGGSLRLSCAASGFTFSSYVMSWVRQVPGKGLEWVSAISGRGGNTFYADSVKGRFTISRDNSKNTLYLQMDSLRAEDTAVYYCAKDDRRIAAGSFDYWGQGTTVTVSS
VL: AIQLTQSPSSLSASVGDRVTITCRASQGISSALAWYQQKPGKAPKLLIYDVSSLESGVPSRFSGSGSGTDFTLTISSLQPEDFATYYCQQFNSYPLTFGGGTKVEIK
B7: 11C5 antibody (antibody, V domains shown)
VH: QVQLVQSGAEVKKPGASVKVSCKASGYTFTIYYLHWVRQAPGQGLEWMGIINPSGGRTNYAQKFQGRVTMTRDPSTNTVYMELSSLTSEDAAVYYCARGEFSSGWLDYWGQGTTVTVSS
VL: B6 VL with A1D, L4M, L11V, A32W, Q38H, D50A, V51A, E55Q, F91A, Y94F
B8: 28B11 antibody (antibody, V domains shown)
VH: QVQLVESGGGLVKPGGSLRLSCAASGFTFSNYYMTWIRQAPGKGLEWISYISSTGGNIYYADSVKGRFTISRDNAQNSLYLQMNSLRAEDTAVYYCARDGGVIISTAMFDYWGQGTTVTVSS
VL: B6 VL with V51A, F62L
B9: 5E12 antibody (antibody, V domains shown)
VH: QVQLVQSGGGLVQPGRSLRLSCAASGFTFDDYAMHWVRQAPGKGLEWVSGISWNSGTIGYADSVKGRFTISRDNAKNSLYLQMNSLRAEDTALYYCAKELYISDWDSYSYGMDVWGQGTTVTVSS
VL: not shown
B10: 41B10 antibody (antibody, V domains shown)
VH: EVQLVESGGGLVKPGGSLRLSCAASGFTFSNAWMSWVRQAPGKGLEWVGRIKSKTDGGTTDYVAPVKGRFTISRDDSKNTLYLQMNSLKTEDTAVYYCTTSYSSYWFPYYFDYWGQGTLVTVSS
VL: DIQMTQSPSSLSASVGDRVTITCRASQGISSWLAWYQQKPEKAPKSLIYAASSLQSGVPSRFSGSGSGTDFTLTISSLQPEDFATYYCQQYNSYPITFGQGTRLEIK

These binders were tested against T1, human IL-17F homodimer (assay: cell-based or functional assay).

Row | Binder | IC50 (nM), IL-6 secretion by MEF cells stimulated with IL-17F (5 ng/ml) and mTNF-α [nM]
1 | B1 | 1.1
2 | B2 | 2
3 | B3 | 2
4 | B4 | 5.9
5 | B5 | 0.5
6 | B6 | 1.1
7 | B7 | 0.4
8 | B8 | 1.2

What follows are binders tested against T2, cynomolgus IL-17F homodimer, His-tagged (assay: cell-based or functional assay).

Row | Binder | IC50 (nM), IL-6 secretion by MEF cells stimulated with IL-17F (5 ng/ml) and mTNF-α [nM]
9 | B1 | 8.4
10 | B2 | 10
11 | B3 | 8.7
12 | B4 | 26
13 | B5 | 12
14 | B9 | 22
15 | B10 | 18
16 | B6 | 11
17 | B7 | 2.9
18 | B8 | 6.3
